Assay [1] deals with T1, human LRP6 construct E1 (amino acids A20-D325) (human, UniProt O75581 20-325).
T1 construct: range 20-325; In the Fab crystal E1 arose from E1E2 degraded beyond Arg 335; residues Ala20 to Lys324 were traced; also called LRP6 E1; E1 domain
T1 sequence (looked up): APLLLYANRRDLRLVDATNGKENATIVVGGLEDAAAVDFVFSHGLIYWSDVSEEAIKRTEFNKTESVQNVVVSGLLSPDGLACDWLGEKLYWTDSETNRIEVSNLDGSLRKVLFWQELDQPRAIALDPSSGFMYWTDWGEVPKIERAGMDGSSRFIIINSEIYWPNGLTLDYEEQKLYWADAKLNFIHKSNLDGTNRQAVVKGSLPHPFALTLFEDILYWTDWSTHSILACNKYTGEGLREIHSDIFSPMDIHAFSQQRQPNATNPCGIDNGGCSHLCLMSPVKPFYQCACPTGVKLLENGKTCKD
Briefly: synthetic peptides, competition IC50 (FIG. 18).

The target of assay [2] is T2, human LRP6 construct E1E2 (amino acids A20-E631) (human, UniProt O75581 20-631, biotinylated for biolayer interferometry).
T2 construct: range 20-631; also called LRP6 E1E2
T2 sequence (looked up): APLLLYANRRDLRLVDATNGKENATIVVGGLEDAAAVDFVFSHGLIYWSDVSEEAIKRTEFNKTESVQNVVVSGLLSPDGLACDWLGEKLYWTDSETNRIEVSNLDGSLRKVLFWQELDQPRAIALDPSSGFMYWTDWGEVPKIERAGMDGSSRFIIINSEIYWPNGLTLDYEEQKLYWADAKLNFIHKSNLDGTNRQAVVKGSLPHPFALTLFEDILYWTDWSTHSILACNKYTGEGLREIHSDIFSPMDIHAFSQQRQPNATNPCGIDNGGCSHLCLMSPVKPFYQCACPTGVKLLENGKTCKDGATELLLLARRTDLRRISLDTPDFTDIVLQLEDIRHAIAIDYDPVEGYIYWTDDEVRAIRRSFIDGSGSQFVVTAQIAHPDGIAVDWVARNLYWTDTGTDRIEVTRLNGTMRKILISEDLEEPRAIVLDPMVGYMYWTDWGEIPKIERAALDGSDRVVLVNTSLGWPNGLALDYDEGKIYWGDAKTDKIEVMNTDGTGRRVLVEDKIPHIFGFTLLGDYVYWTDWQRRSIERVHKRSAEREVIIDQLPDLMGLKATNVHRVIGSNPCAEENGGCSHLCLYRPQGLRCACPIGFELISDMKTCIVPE
Briefly: BLI affinity. The protocol: (§1) Binding kinetics were measured by biolayer interferometry using an Octet Red instrument (ForteBio) as previously described (11). Streptavidin (SA) biosensors were loaded with biotinylated hLRP6 in 50 mMTris, pH 8, 300 mM NaCl, 5% (v/v) glycerol, and 0.05% (w/v) Triton X-100. The loaded biosensors were washed in the same buffer before carrying out association and dissociation measurements for the indicated times. The Kd of each interaction was determined using steady state-analysis through the Octet Red software v6.3. Each reported value represents an average of three or more experiments at different concentrations, with a fitted experimental curve for which the square of the correlation coefficient (R²) is above 0.96.

Another assay addresses T3, LRP6 E1E2 (Homo sapiens, UniProt O75581).
T3 construct: construct E1E2-amino acids A20-E631 of LPR6; made in house; host or cells: Tni insect cells (baculovirus, secreted)
T3 sequence (O75581 20-631): T2 sequence (looked up)
Nature of the assay: Biolayer interferometry binding to LRP6 E1E2. The protocol: as §1, with “(R^2)” for “(R²)”
(§2) The interaction of the different Dkks and sclerostin with various domains of LRP6 was measured using a biolayer interferometry assay (11). Purified receptors contained individual β-propeller-EGF-like units (E1, E2, or E4), two β-propellers (E1E2 or E3E4), or four β-propellers (E1E4))—as follows:
(§3) Human LRP6: construct E1E4-amino acids A20-Q1253 of LPR6; construct E1E2-amino acids A20-E631 of LPR6; construct E3E4 amino acids E631-Q1253 of LPR6; construct E1-amino acids A20-D325 of LPR6; construct E2-amino acids […]-E631 of LPR6; construct E4-T933-Q1253. The individual LRP6 β-propeller E3 could not be expressed.
Background: In BLI a coated tip is dipped into the sample, and binding shifts an interference pattern.

Another assay has as its target T4, LRP6 E3E4 (Homo sapiens, UniProt O75581).
T4 construct: construct E3E4 amino acids E631-Q1253 of LPR6; made in house; host or cells: Tni insect cells (baculovirus, secreted)
T4 sequence (O75581 631-1253): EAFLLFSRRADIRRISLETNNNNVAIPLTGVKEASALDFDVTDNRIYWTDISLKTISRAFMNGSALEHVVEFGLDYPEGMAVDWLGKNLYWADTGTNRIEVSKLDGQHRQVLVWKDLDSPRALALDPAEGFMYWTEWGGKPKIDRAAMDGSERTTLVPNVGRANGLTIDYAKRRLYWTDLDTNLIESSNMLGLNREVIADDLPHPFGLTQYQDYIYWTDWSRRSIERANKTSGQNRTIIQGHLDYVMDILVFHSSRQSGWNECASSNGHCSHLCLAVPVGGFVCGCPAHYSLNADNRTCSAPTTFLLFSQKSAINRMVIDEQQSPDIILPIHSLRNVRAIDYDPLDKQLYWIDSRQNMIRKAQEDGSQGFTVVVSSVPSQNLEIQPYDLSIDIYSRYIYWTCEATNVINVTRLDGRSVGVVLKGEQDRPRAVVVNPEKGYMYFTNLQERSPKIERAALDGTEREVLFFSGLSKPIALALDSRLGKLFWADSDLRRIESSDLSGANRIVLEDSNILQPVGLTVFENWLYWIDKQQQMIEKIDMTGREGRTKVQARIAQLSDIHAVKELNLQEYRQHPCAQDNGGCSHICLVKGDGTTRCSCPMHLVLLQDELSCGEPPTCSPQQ
Briefly: Biolayer interferometry binding to LRP6 E3E4. Here is the method: as §1, with “(R^2)” for “(R²)”
as §2, §3

For another assay, the target named is T5, LRP6 E1E4 (Homo sapiens, UniProt O75581).
T5 construct: construct E1E4-amino acids A20-Q1253 of LPR6; made in house; host or cells: Tni insect cells (baculovirus, secreted)
T5 sequence (O75581 20-1253): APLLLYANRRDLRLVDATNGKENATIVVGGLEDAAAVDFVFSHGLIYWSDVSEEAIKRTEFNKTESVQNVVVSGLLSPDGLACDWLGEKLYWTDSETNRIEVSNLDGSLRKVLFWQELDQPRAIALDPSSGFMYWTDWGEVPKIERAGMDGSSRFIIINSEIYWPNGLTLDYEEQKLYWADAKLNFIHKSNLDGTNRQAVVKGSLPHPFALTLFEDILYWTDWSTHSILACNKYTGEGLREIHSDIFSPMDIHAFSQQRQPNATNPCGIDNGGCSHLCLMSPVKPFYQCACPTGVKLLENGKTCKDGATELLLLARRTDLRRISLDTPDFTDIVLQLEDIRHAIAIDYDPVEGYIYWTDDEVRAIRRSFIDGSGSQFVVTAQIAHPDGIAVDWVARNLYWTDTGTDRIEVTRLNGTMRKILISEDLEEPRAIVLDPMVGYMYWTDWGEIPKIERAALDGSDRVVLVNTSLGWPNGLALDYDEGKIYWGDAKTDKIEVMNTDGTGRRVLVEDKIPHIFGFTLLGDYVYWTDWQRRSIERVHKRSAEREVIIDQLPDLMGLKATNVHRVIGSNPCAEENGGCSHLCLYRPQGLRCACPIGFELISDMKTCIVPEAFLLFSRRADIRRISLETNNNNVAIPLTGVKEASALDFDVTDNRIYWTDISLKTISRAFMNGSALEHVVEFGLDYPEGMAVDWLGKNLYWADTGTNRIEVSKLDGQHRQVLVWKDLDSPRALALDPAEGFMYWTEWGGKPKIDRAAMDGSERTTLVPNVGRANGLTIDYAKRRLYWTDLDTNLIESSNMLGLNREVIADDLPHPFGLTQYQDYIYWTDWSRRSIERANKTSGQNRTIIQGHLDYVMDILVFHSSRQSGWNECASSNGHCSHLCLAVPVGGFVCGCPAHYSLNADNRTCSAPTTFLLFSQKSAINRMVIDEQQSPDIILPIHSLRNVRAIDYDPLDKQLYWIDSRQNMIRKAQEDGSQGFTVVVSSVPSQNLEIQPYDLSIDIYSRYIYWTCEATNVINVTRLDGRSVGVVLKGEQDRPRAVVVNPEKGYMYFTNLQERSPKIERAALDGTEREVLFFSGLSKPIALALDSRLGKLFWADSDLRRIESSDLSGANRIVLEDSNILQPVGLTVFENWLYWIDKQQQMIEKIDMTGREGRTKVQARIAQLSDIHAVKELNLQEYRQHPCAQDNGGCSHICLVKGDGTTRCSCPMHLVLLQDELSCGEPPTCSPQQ
Briefly: Biolayer interferometry binding to LRP6 E1E4. The protocol:
as §1, with “(R^2)” for “(R²)”
as §2, §3

Results on 9 molecules are retold here after patent US20140235820A1, “METHODS AND COMPOSITIONS FOR MODULATING THE Wnt PATHWAY” (Genentech, Inc., priority 2010, published 2014).

Non-standard residues stand in square brackets, D forms with d. NMeI = CC[C@H](C)[C@H](NC)C(=O)O; NMeK = CN[C@@H](CCCCN)C(=O)O; NMeS = CN[C@@H](CO)C(=O)O

B1: Ac-NSIKGY-am with an Nα-methyl amino acid at the S position (peptide)
peptide: Ac-N[NMeS]IKGY-NH2
SMILES: CC[C@H](C)[C@H](NC(=O)[C@H](CO)N(C)C(=O)[C@H](CC(N)=O)NC(C)=O)C(=O)N[C@@H](CCCCN)C(=O)NCC(=O)N[C@@H](Cc1ccc(O)cc1)C(N)=O
Consider B1, for which the binding result in assay [1] was “no binding”.

B2: Ac-NSIKGY-am (peptide)
peptide: Ac-NSIKGY-NH2
notes: also called minimized analogue of the Dkk1 peptide; Lys parent
In the case of B2, the binding result in assay [1] is recorded as “binds”.

B3: Ac-NSIKGY-am with Glu in place of Ile (peptide)
peptide: Ac-NSEKGY-NH2
On to B3, for which the binding result in assay [1] is “no binding”.

B4: Ac-NSIKGY-am with Gln in place of Asn (peptide)
peptide: Ac-QSIKGY-NH2
Turning to B4, the binding result in assay [1] is on record as “no binding”.

B5: Sclerostin Asn117Ala (ligand, UniProt Q9BQB4 24-213, looked up)
chain: QGWQAFKNDATEIIPELGEYPEPPPELENNKTMNRAENGGRPPHHPFETKDVSEYSCRELHFTRYVTDGPCRSAKPVTELVCSGQCGPARLLPAAIGRGKWWRPSGPDFRCIPDRYRAQRVQLLCPGGEAPRARKVRLVASCKCKRLTRFHNQSELKDFGTEAARPQKGRKPRPRARSAKANQAELENAY
notes: also called sclerostin N117A
Regarding B5, in assay [2], the “fold loss in affinity against wild-type sclerostin” value came to 14 fold.

B6: Ac-NSIKGY-am with an Nα-methyl amino acid at the I position (peptide)
peptide: Ac-NS[NMeI]KGY-NH2
SMILES: CC[C@H](C)[C@@H](C(=O)N[C@@H](CCCCN)C(=O)NCC(=O)N[C@@H](Cc1ccc(O)cc1)C(N)=O)N(C)C(=O)[C@H](CO)NC(=O)[C@H](CC(N)=O)NC(C)=O
For B6, the binding result in assay [1] was “no binding”.

B7: Dkk4: Dickkopf 4, carrier-free protein from R&D Systems (protein, UniProt Q9UBT3 19-224, looked up)
Dickkopf-related protein 4: LVLDFNNIRSSADLHGARKGSQCLSDTDCNTRKFCLQPRDEKPFCATCRGLRRRCQRDAMCCPGTLCVNDVCTTMEDATPILERQLDEQDGTHAEGTTGHPVQENQPKRKPSIKKSQGRKGQEGESCLRTFDCGPGLCCARHFWTKICKPVLLEGQVCSRRGHKDTAQAPEIFQRCDCGPGLLCRSQLTSNRQHARLRVCQKIEKL
Consider B7, for which, in the assay with LRP6 E1E2, the “binding to LRP6 E1E2 (in words)” value is recorded as “did not bind”. In addition, the “binding to LRP6 E3E4 (in words)” value with LRP6 E3E4 is on record as “very weak binding”. Moreover, the “binding to LRP6 E1E4 (in words)” value with LRP6 E1E4 is “very weak binding”.

B8: Dkk1 Asn40Ala (ligand, human, UniProt O94907 32-266, looked up)
chain: TLNSVLNSAAIKNLPPPLGGAAGHPGSAVSAAPGILYPGGNKYQTIDNYQPYPCAEDEECGTDEYCASPTRGGDAGVQICLACRKRRKRCMRHAMCCPGNYCKNGICVSSDQNHFRGEIEETITESFGNDHSTLDGYSRRTTLSSKMYHTKGQEGSVCLRSSDCASGLCCARHFWSKICKPVLKEGQVCTKHRRKGSHGLEIFQRCYCGEGLSCRIQKDHHQASNSSRLHTCQRH
notes: also called Dkk1 N40A
B8: in assay [2], the “fold loss in affinity against wild-type Dkk1” value turned out to be 75 fold. For the same molecule, in the assay with LRP6 E1E2, the “binding to LRP6 E1E2 (in words)” value is on record as “affect binding”. Also, the “binding to LRP6 E3E4 (in words)” value with LRP6 E3E4 was “not to E3E4”. For the same molecule, in the assay with LRP6 E1E4, the “binding to LRP6 E1E4 (in words)” value is “retain binding”.

B9: Ac-NSIKGY-am with an Nα-methyl amino acid at the K position (peptide)
peptide: Ac-NSI[NMeK]GY-NH2
SMILES: CC[C@H](C)[C@H](NC(=O)[C@H](CO)NC(=O)[C@H](CC(N)=O)NC(C)=O)C(=O)N(C)[C@@H](CCCCN)C(=O)NCC(=O)N[C@@H](Cc1ccc(O)cc1)C(N)=O
With B9, the binding result in assay [1] is reported as “no binding”.
